Source: PMC11250742, “Preclinical evaluation of CXCR4 peptides for targeted radionuclide therapy in glioblastoma” (EJNMMI Radiopharmacy and Chemistry, 2024)
Where a SMILES comes first, the peptide text is derived from it. Bridges are numbered along the chain shown (N, C = ends). [ ]: non-standard residue; d: D form. The star is where a group is joined. DOTA = O=C(O)CN1CCN(CC(=O)O)CCN(CC(=O)*)CCN(CC(=O)O)CC1; 2Nal = N[C@@H](Cc1ccc2ccccc2c1)C(=O)O; Cit = NC(=O)NCCC[C@H](N)C(=O)O

How the values were obtained:
CXCR4 [1] = target: T1, CXCR4 (Homo sapiens, UniProt P61073); assay: Saturation binding assay on U87-CXCR4 + cells; conditions: 0.1–1000 nM, 4 h, 37 °C; NSB with 100 µM AMD11070; N = 2
T1 construct: expressed in transfected cells; host or cells: U87-MG (U87-CXCR4+), kept under blasticidin selection
T1 sequence (P61073 whole entry): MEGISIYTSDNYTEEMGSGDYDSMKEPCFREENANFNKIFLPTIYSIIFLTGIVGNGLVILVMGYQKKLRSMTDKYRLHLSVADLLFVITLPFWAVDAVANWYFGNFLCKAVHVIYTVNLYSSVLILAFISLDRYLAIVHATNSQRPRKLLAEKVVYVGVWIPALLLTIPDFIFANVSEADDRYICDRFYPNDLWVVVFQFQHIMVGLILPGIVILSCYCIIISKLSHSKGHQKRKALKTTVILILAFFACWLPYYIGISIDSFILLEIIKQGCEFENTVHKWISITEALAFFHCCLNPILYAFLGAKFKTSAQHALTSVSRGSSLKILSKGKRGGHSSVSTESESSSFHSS
Protocol: In the saturation binding assays, U87-CXCR4 + cells were seeded in 24-well plates and allowed to adhere. The night before the experiment, complete media was replaced with media containing 2% FBS. To determine the total binding, cells were treated with a mixture of each radiolabelled peptide (at final concentrations ranging from 0.1 to 1000 nM, corresponding to activity concentrations ranging from 0.005 to 50 MBq/mL) with 0.2% dimethyl sulfoxide (DMSO, vehicle). Non-specific binding (NSB) was verified by treating cells with a mixture of each radiolabelled peptide with 100 µM of AMD11070, a potent CXCR4 antagonist.
After 4 h of incubation at 37 °C and 5% CO2, the unbound fraction was collected in gamma counter tubes, and the cells were washed twice with PBS. The wash fractions were added to the same gamma counter tubes. Next, cells were lysed by incubation with 1 M NaOH for 30 min at room temperature (RT). After collecting the lysed cell fractions, two washes with 1 M NaOH were performed, and added to the same fractions, corresponding to the total bound fractions.
The activities of all collected fractions were measured in an automated gamma counter. […]
Statistical analyses and data plotting were done using GraphPad Prism 10. […] Statistical significance was evaluated with one-way ANOVA followed by post-hoc comparisons with the untreated cells using Dunnett’s test. […]

CXCR4 [2] = target: T1, CXCR4; assay: In vitro autoradiography saturation binding on U87-CXCR4 + tumour slices; conditions: sections of subcutaneous U87-CXCR4 + tumours; 0.1–1000 nM; NSB with 100 µM AMD11070; N = 3
in vivo = assay: in vivo; design: species or system BALB/c nude mice; conditions: mouse; for tissue uptake dose at 4 h / SUV at 4 h: BALB/c nude, iv, total radioactivity; for tissue uptake dose at 4 h: %IA
Protocol: For the generation of the subcutaneous GBM xenograft model, BALB/c nude mice (between 8 and 12 weeks old) were anesthetised with 2.5% isoflurane in O2 at a flow rate of 0.2 L/min and subcutaneously injected on the right shoulder with 3 × 10^6 U87-CXCR4 + cells resuspended in a 1:1 mixture of PBS and Cultrex BME (R&D Systems, Bio-Techne, Minnesota, US). Tumours were left to grow for ten days before the start of the experiment. Tumour volumes were calculated as length × width × height. Three days before the experiment, the mean tumour volumes of all mice were 255 ± 119 mm^3.
All animals were anesthetised with 2.5% isoflurane in O2 at a flow rate of 1 L/min and intravenously (IV) injected with 1.5 MBq of [^177Lu]Lu-POL3026 via a tail vein (radiolabelled with a Am of 53.1 ± 0.55 MBq/nmol). The mice were sacrificed by an overdose of pentobarbital (200 µL of 60 mg/mL) at 1-, 4-, 24- and 168 h post-injection (p.i.) (n = 3–4 per time point), followed by cardiac puncture. Organs of interest were collected in tarred tubes and weighed. The activity in the different organs was measured in the automated gamma counter described above. For the calculation of the total activity in the blood, bone, and muscle, the masses were assumed to be 7, 12 and 40% of the total body mass, respectively. Data is shown as standardised uptake value (SUV), calculated using the following equation:
SUV = [Activity in organ (cpm) / Organ weight (g)] / [(Injected activity (cpm) / Total body weight (g)].
A separate study was performed to evaluate the specificity of the uptake of [^177Lu]Lu-POL3026 in U87-CXCR4 + subcutaneous tumours and the rest of the organs. This was done by creating two groups (n = 4 / group), one group pre-injected intraperitoneally (IP) with 5 mg/kg of AMD11070, 30 min before the IV injection of [^177Lu]Lu-POL3026, while the other group was pre-injected with the DMSO vehicle. Mice from both groups were sacrificed 4 h post-injection and organs were collected as previously described.

SMILES: N=C(N)NCCC[C@@H]1NC(=O)[C@@H]2CSSC[C@H](NC(=O)[C@H](Cc3ccc4ccccc4c3)NC(=O)[C@H](CCCNC(=N)N)NC(=O)[C@H](CCCNC(=N)N)NC(=O)[C@H]3CCCN3C(=O)CNC1=O)C(=O)N[C@@H](Cc1ccc(O)cc1)C(=O)N[C@@H](CCC(N)=O)C(=O)N[C@@H](CCCCNC(=O)CN1CCN(CC(=O)O)CCN(CC(=O)O)CCN(CC(=O)O)CC1)C(=O)N1CCC[C@@H]1C(=O)N1CCC[C@H]1C(=O)N[C@@H](Cc1ccc(O)cc1)C(=O)N[C@@H](CCCNC(=N)N)C(=O)N[C@@H](CCCNC(N)=O)C(=O)N2 [[^177Lu]Lu-DOTA-POL3026, metal not drawn] (cyclo(RR[2Nal]CYQK(DOTA)[dP]PYR[Cit]CRG[dP]); disulfide 4-13)
- Kd (CXCR4 [1]): 21.8 nM
- Kd (CXCR4 [2]): 52 nM
- tissue uptake dose at 4 h (in vivo; 5 mg/kg, Blood): 0.33 %ID
- tissue uptake dose at 4 h (in vivo; 5 mg/kg, Blood on tissue paper): 0.97 %ID
- tissue uptake dose at 4 h (in vivo; 5 mg/kg, Bone): 5.16 %ID
- tissue uptake dose at 4 h (in vivo; 5 mg/kg, Brain): 0.01 %ID
- tissue uptake dose at 4 h (in vivo; 5 mg/kg, Carcass): 9.91 %ID
- tissue uptake dose at 4 h (in vivo; 5 mg/kg, Heart): 0.03 %ID
- tissue uptake dose at 4 h (in vivo; 5 mg/kg, Intestines): 1.17 %ID
- tissue uptake dose at 4 h (in vivo; 5 mg/kg, Kidneys): 5.44 %ID
- tissue uptake dose at 4 h (in vivo; 5 mg/kg, Liver): 33.8 %ID
- tissue uptake dose at 4 h (in vivo; 5 mg/kg, Lungs): 0.35 %ID
- tissue uptake dose at 4 h (in vivo; 5 mg/kg, Muscle): 1.02 %ID
- tissue uptake dose at 4 h (in vivo; 5 mg/kg, Pancreas): 0.02 %ID
- tissue uptake dose at 4 h (in vivo; 5 mg/kg, Spleen): 0.51 %ID
- tissue uptake dose at 4 h (in vivo; 5 mg/kg, Stomach): 0.06 %ID
- tissue uptake dose at 4 h (in vivo; 5 mg/kg, Tail): 3.44 %ID
- tissue uptake dose at 4 h (in vivo; 5 mg/kg, Tumour): 1.68 %ID
- SUV at 4 h (in vivo; 5 mg/kg, Blood): 0.05 SUV
- SUV at 4 h (in vivo; 5 mg/kg, Bone): 0.43 SUV
- SUV at 4 h (in vivo; 5 mg/kg, Heart): 0.06 SUV
- SUV at 4 h (in vivo; 5 mg/kg, Kidneys): 3.74 SUV
- SUV at 4 h (in vivo; 5 mg/kg, Liver): 5.76 SUV
- SUV at 4 h (in vivo; 5 mg/kg, Lungs): 0.57 SUV
- SUV at 4 h (in vivo; 5 mg/kg, Muscle): 0.03 SUV
- SUV at 4 h (in vivo; 5 mg/kg, Pancreas): 0.03 SUV
- SUV at 4 h (in vivo; 5 mg/kg, Spleen): 1.41 SUV
- SUV at 4 h (in vivo; 5 mg/kg, Tumour): 1.59 SUV
- tissue uptake dose at 4 h (in vivo; 1.5 MBq, Blood): 2.91 %ID
- tissue uptake dose at 4 h (in vivo; 1.5 MBq, Blood on tissue paper): 1.34 %ID
- tissue uptake dose at 4 h (in vivo; 1.5 MBq, Bone): 6.85 %ID
- tissue uptake dose at 4 h (in vivo; 1.5 MBq, Brain): 0.02 %ID
- tissue uptake dose at 4 h (in vivo; 1.5 MBq, Carcass): 20.3 %ID
- tissue uptake dose at 4 h (in vivo; 1.5 MBq, Heart): 0.16 %ID
- tissue uptake dose at 4 h (in vivo; 1.5 MBq, Intestines): 2.43 %ID
- tissue uptake dose at 4 h (in vivo; 1.5 MBq, Kidneys): 5.12 %ID
- tissue uptake dose at 4 h (in vivo; 1.5 MBq, Liver): 33.5 %ID
- tissue uptake dose at 4 h (in vivo; 1.5 MBq, Lungs): 1.23 %ID
- tissue uptake dose at 4 h (in vivo; 1.5 MBq, Muscle): 3.35 %ID
- tissue uptake dose at 4 h (in vivo; 1.5 MBq, Pancreas): 0.12 %ID
- tissue uptake dose at 4 h (in vivo; 1.5 MBq, Spleen): 1.74 %ID
- tissue uptake dose at 4 h (in vivo; 1.5 MBq, Stomach): 0.18 %ID
- tissue uptake dose at 4 h (in vivo; 1.5 MBq, Tail): 2.77 %ID
- tissue uptake dose at 4 h (in vivo; 1.5 MBq, Tumour): 3.35 %ID
- SUV at 4 h (in vivo; 1.5 MBq, Blood): 0.42 SUV
- SUV at 4 h (in vivo; 1.5 MBq, Bone): 0.57 SUV
- SUV at 4 h (in vivo; 1.5 MBq, Brain): 0.01 SUV
- SUV at 4 h (in vivo; 1.5 MBq, Heart): 0.37 SUV
- SUV at 4 h (in vivo; 1.5 MBq, Kidneys): 3.84 SUV
- SUV at 4 h (in vivo; 1.5 MBq, Liver): 6.18 SUV
- SUV at 4 h (in vivo; 1.5 MBq, Lungs): 2.29 SUV
- SUV at 4 h (in vivo; 1.5 MBq, Muscle): 0.08 SUV
- SUV at 4 h (in vivo; 1.5 MBq, Pancreas): 0.15 SUV
- SUV at 4 h (in vivo; 1.5 MBq, Spleen): 4.83 SUV
- SUV at 4 h (in vivo; 1.5 MBq, Tumour): 2.58 SUV
- SUV, Brain (in vivo; ip, 5 mg/kg): 0.00
